Changes are numbered by the printed parent chain.
B1: Fab SEQ ID NOs. 35. 36 (Fab, V domains shown)
VH: EVQLVESGGGVVQPGRSLRLSCAASGFTFSNYPMHWVRQAPGKGLEWVAVISYDGSEKWYADSVKGRFTISRDNSKNTLYLEMNSLRPEDTAVYYCARNRGDIYYDFTYAMDYWGQGTTVTVSS
VL: DIQLTQSPSTLSASVGDSVTITCRASEGVDRWLAWYQQKPGRAPKLLIYDASTLQSGVPSRFSGSGSGTEFSLTISSLQPDDVATYYCQHFWSTPYTFGQGTKLEIK
B2: Fab SEQ ID NOs: 13, 4 (Fab, V domains shown)
VH: QVQLVESGGGVVQPGRSLRLSCAASGFTFSSYPLHWVRQAPGKGLEWVSFISYDGSEKYYASSVKGRFTISRDNSENTLYLQMNSLRPEDTAVYYCARNRGDIYYDFTYAMDIWGQGTMVTVSS
VL: DIQMTQSPSSLSASVGDRVTITCRASQSISRWVAWYQQRPGKAPNLLIYDASSLKSGVPSRFSGSGSGTEFTLTISSLQPEDIATYYCQQFWSTPYTFGQGTKLEIK
B3: Fab SEQ ID NOs: 13, 10 (Fab, V domains shown)
VH: B2 VH
VL: DIQLTQSPSFLSASVGDRVTITCRASQGISTYLAWYQQKPGKAPKLLIYDASALQSGVPSRFSGSGSGTEFTLTISSLQPEDVATYYCQQFWSTPYTFGQGTKLEIK
B4: Fab SEQ ID NOs. 24, 26 (Fab, V domains shown)
VH: B1 VH with Y113I
VL: B1 VL with S93G
B5: Fab SEQ ID NOs: 13, 37 (Fab, V domains shown)
VH: B2 VH
VL: B2 VL with S93G
B6: Fab SEQ ID NOs 3, 4 (Fab, V domains shown)
VH: QVQLVESGGGVVQPGGSLRLSCAASGFTFSTAGMHWVRQAPGKGLEWVAVIWYNGKEISYADSVKGRFTVSRDNPKNTLYLQMSSLRTEDTAVYYCARNRGDIYYDFTYAMDIWGQGTMVTVSS
VL: B2 VL
B7: Fab SEQ ID NOs: 5, 6 (Fab, V domains shown)
VH: B6 VH with G16R, A23T, T28S, T31S, A32Y
VL: B3 VL with D1A, D50A, A53S, E70D

What follows are binders tested against PcrV of the Type III secretion system on P. aeruginosa strain PA103 (Pseudomonas aeruginosa strain PA103) (assay: cell-based or functional assay).

Row | Binder | IC50 (nM), TTSS-dependent cytotoxicity assay (PA103 killing of P3-X63-Ag8 cells) [nM]
1 | B1 | 61.4
2 | B2 | 20
3 | B3 | 25.5
4 | B4 | 25.5
5 | B5 | 12
6 | B6 | 35.1
7 | B7 | 50.2

— patent US20090191186A1 (KALOBIOS PHARMACEUTICALS, published 2009)
